Data from paper PMC8727950.

Target: honey bee (Apis mellifera) vitellogenin, full-length hemolymph Vg (honey bee (Apis mellifera)) (UniProt Q868N5)
Assay: native gel or EMSA; BN-PAGE of purified Vg, two different amounts loaded; precast 3-12% acrylamide gels, 4 °C, 2 h at 150 V; no reducing agent in loading buffer or gel; monomer to dimer

honey bee (Apis mellifera) vitellogenin, full-length hemolymph Vg (from UniProt Q868N5 17-1770) (natural protein)
stoichiometry N: 2
